Reference: paper PMC8259991, “Transgenerational inheritance of centromere identity requires the CENP-A N-terminal tail in the C. elegans maternal germ line” (PLoS Biology, 2021)

Molecular target: T1, KNL-2 central region (aa 269-470), recombinant (C. elegans, UniProt O44548 269-470)
T1 construct: The His9-MBP tag was cut off with TEV protease after mixing and before the pull-down; also called KNL-2 central fragment; source: E. coli BL21-Star, purified (MBP FF crude column, desalting); not shown: His9-MBP, N-terminal, cleaved
T1 sequence (looked up): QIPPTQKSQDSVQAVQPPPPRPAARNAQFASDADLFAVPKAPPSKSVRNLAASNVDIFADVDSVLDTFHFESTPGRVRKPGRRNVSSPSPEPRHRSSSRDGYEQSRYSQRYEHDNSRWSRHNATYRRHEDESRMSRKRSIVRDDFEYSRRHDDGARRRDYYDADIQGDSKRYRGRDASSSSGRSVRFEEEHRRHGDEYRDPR
Experiment: pull-down; recombinant proteins mixed in equimolar amounts, 1 h at RT, TEV digestion 30 min at RT, glutathione magnetic agarose beads 1 h at RT; SDS-PAGE with Coomassie stain
Conditions: both partners purified

binding result: binds
B1: CENP-A N-terminal tail (aa 1-179) fused to GST (domain or fragment, C. elegans, UniProt P34470 1-179, looked up)
chain: MADDTPIIEEIAEQNESVTRIMQRLKHDMQRVTSVPGFNTSAAGVNDLIDILNQYKKELEDDAANDYTEAHIHKIRLVTGKRNQYVLKLKQAEDEYHARKEQARRRASSMDFTVGRNSTNLVDYSHGRHHMPSYRRHDSSDEENYSMDGTNGDGNRAGPSNPDRGNRTGPSSSDRVRMR
notes: CENP-A homolog HCP-3, C. elegans, residues 1-179 (N-terminal tail); The His9-MBP tag was cut off with TEV protease after the two proteins had been mixed and before the pull-down on glutathione beads; also called His9-MBP-TEV-CENP-A^1-179-GST; GST::CENP-A N-terminal tail; source: E. coli BL21-Star, purified (Ni-charged chelating HiTrap column, desalting); not shown: His9-MBP, N-terminal, cleaved; …
